Experimental data from patent publication US20170306001A1.

Legend:
[1] = molecular target: native H5 HA from multiple H5N1 clades; experiment: cell-based or functional assay
[2] = molecular target: DL06-HA, full length HA of A/duck/Laos/3295/2006(H5N1) (clade 2.3.4) (influenza A virus A/duck/Laos/3295/2006(H5N1)); experiment: cell-based or functional assay

B1: Mouse MAb 9F4 (antibody, V domains shown)
VH: QQSEAELARPGASVKMSCKASGFTLTTFTIHWVKQRPGQGLEWIGYINPRSGYTDYNQKFKDNTTLTVDKSSSTAYMQLSSLTSEDSAVFYCARSYYDYDVFDYWGQGTTLTV
VL: DVQMTQSPSSLSASLGGKVTITCTARQDINKYIAWYQHKPGKGPRLLIHYTSTLQPGIPSRFSGSGSGTDYSFTISNLEPEDIATYYCLQYDNLVTFGGGTK
B1 was tested, and the IC95, HApp neutralization [1] was 0.1 µg/mL and the IC50, entry of HA-pseudotyped lentiviral particles into MDCK cells (luciferase) [2] was 0.01 µg/mL.
